Results: paper doi:10.1101/2022.05.13.491168

B1: Pcas12k (P82) (dsDNA)
DNA 1: AAGAAACATCCTATAGAAGCATCTTCTAAAACACATTAGTGCTTTGTATAACATTATGTGTTTTGTATGGTATTTTATTTTT
DNA 2: AAAAATAAAATACCATACAAAACACATAATGTTATACAAAGCACTAATGTGTTTTAGAAGATGCTTCTATAGGATGTTTCTT

Tests used:
[1] = biological target: CvkR (Cas V-K repressor, Alr3614) of Anabaena (Nostoc) sp. PCC 7120 (Anabaena (Nostoc) sp. PCC 7120); experiment: SEC
[2] = biological target: CvkR (Alr3614) (Anabaena (Nostoc) sp. PCC 7120, UniProt A0ACD6B984 19-168); experiment: EMSA

Molecule | stoichiometry N [1] | binding result [2]
CvkR (Cas V-K repressor, Alr3614) of Anabaena (Nostoc) sp. PCC 7120 (natural protein) | 2 | –
B1 | – | binds
